Source: article PMC9576799, “Discovery of small molecule inhibitors that effectively disrupt IQGAP1-Cdc42 interaction in breast cancer cells” (Scientific Reports, 2022)

Assays:
GST-IQGAP1-C = target: T1, GST-IQGAP1-C (Homo sapiens, UniProt P46940); assay: GST pull-down assay and Western blotting; format: binding; settings: 2 h at 4 °C, Western blot with anti-Cdc42
T1 construct: the C-terminal half of IQGAP1 (comprising amino acids 864–1657) containing a GST-tag; made in house; host or cells: Escherichia coli BL-21
T1 sequence (P46940 864-1657): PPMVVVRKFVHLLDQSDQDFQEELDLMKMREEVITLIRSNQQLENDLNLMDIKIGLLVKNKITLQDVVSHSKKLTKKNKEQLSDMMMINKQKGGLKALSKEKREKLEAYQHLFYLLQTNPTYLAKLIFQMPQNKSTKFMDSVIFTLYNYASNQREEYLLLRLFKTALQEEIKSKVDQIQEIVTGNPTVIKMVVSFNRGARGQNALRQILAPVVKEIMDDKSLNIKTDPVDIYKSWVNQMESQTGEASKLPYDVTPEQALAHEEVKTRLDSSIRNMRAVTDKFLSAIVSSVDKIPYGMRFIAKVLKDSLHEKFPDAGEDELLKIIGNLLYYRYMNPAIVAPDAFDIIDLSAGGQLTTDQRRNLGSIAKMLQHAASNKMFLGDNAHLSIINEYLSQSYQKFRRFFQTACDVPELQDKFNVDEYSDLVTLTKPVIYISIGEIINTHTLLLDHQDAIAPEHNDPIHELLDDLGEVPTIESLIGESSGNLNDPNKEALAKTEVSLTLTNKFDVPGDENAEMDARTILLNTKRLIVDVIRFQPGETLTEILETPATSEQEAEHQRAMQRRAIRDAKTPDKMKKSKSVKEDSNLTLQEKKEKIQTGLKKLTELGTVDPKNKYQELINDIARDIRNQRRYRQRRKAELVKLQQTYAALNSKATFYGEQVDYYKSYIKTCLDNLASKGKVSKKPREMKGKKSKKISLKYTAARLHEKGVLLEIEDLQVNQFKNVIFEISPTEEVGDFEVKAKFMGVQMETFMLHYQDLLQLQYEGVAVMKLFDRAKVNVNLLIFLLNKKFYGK
Description: (a) Schematic representation of IQGAP1 protein. The C-terminal half of IQGAP1 (amino acids 864–1657) was used in the HTRF assay. (b) GST pull-down assay. GST-IQGAP1-C was incubated with His-tagged Cdc42-N17 or Cdc42-Q61L for 2 h at 4 °C. GST alone was incubated with Cdc42-Q61L as the negative control. Complexes were isolated using glutathione-Sepharose and resolved by SDS-PAGE. The gel was cut at 70 kDa. The upper part of the gel was stained with Coomassie blue. The lower portion of the gel was transferred to PVDF membrane and probed with anti-Cdc42 antibodies. (c) Scheme of the HTRF assay in 384–well format showing fluorescent labeled GST-IQGAP1-C (donor Europium cryptate, K) and His-Cdc42-Q61L (acceptor XL665). (d) Time resolved fluorescence was detected at 615 and 665 nm on the Biotek Synergy using recombinant proteins. The Y-axis represents the ratio of acceptor to donor emission wavelength multiplied by 10,000. The means and standard errors of two replicates are shown. The green bar (Buffer) indicates samples without His-Cdc42. […] No single label is printed for the pair, so the substance label joins the two printed names.

[1] = target: C-terminal half of IQGAP1 (amino acids 864–1657); set-up: method as in PMID 17984089; settings: scintillation proximity assay; read-out: equilibrium dissociation constant (Kd) of Cdc42-Q61L binding to IQGAP1 fragment; cited from earlier work

| binding to IQGAP1 in GST pulldown (GST-IQGAP1-C) | Substance | Kd [1] |
| --- | --- | --- |
| no detectable binding | Cdc42-N17: dominant negative Cdc42 mutant, negative control | – |
| binds to the C-terminal region of IQGAP1 | Cdc42-Q61L: constitutively active Cdc42 mutant construct that binds IQGAP1 with high affinity | 24 ± 4 nM |
